In US20140212458A1 one finds IC50, neutralization of BG505.T332N pseudovirus, TZM-bl cells and IC50 of neutralization of BG505.T332N Env-pseudovirus (TZM-bl) data, which are given here for 39 substances.

For assay [1], the target named is BG505.T332N Env on Env-pseudotyped virus (HIV-1 BG505 (clade A)).
Assay [2] has the same target. Put plainly: cell-based or functional assay.

The substance 1NC9 (antibody) returned an IC50, neutralization of BG505.T332N pseudovirus, TZM-bl cells in assay [1] of 0.251 µg/mL. The substance 2G12 (antibody) yielded an IC50, neutralization of BG505.T332N pseudovirus, TZM-bl cells in assay [1] of 0.79 µg/mL. In assay [1], 3BC176 (antibody) came in with an IC50, neutralization of BG505.T332N pseudovirus, TZM-bl cells of 0.175 µg/mL. Same read-out and setting: to 3BC315 (antibody) belongs 1.26 µg/mL; to 3BNC60 (antibody), 0.034 µg/mL. 3BNC117 (antibody): the IC50, neutralization of BG505.T332N pseudovirus, TZM-bl cells in assay [1] was determined as 0.041 µg/mL. Consider 7B2 (antibody), for which the IC50 of neutralization of BG505.T332N Env-pseudovirus (TZM-bl) in assay [2] is more than 30 µg/mL. Moreover, the IC50, neutralization of BG505.T332N pseudovirus, TZM-bl cells in assay [1] was more than 30 µg/mL. Substance 8ANC195 (antibody) gave an IC50, neutralization of BG505.T332N pseudovirus, TZM-bl cells in assay [1] of 0.139 µg/mL. Regarding 12A12 (antibody), the IC50, neutralization of BG505.T332N pseudovirus, TZM-bl cells in assay [1] was 0.05 µg/mL. Still for that read-out and setting: next, 45-46 (antibody): 0.033 µg/mL. In assay [2], A32 (antibody) had an IC50 of neutralization of BG505.T332N Env-pseudovirus (TZM-bl) of more than 30 µg/mL. Further, in assay [1], the IC50, neutralization of BG505.T332N pseudovirus, TZM-bl cells is more than 30 µg/mL. For the substance CH01 (antibody), the IC50, neutralization of BG505.T332N pseudovirus, TZM-bl cells in assay [1] was 0.301 µg/mL. CH31 (antibody) showed an IC50, neutralization of BG505.T332N pseudovirus, TZM-bl cells in assay [1] of 0.014 µg/mL. Still for that read-out and setting: to CH103 (antibody) belongs 2.57 µg/mL; to CH106 (antibody), 2.7 µg/mL. On to F91 (antibody), for which the IC50 of neutralization of BG505.T332N Env-pseudovirus (TZM-bl) in assay [2] was more than 30 µg/mL. In assay [1], this substance showed an IC50, neutralization of BG505.T332N pseudovirus, TZM-bl cells of more than 30 µg/mL. In the case of F105 (antibody), in assay [2], the IC50 of neutralization of BG505.T332N Env-pseudovirus (TZM-bl) was more than 30 µg/mL. In assay [1], this substance had an IC50, neutralization of BG505.T332N pseudovirus, TZM-bl cells of more than 30 µg/mL. In assay [2], F240 (antibody) gave an IC50 of neutralization of BG505.T332N Env-pseudovirus (TZM-bl) of more than 30 µg/mL. The IC50, neutralization of BG505.T332N pseudovirus, TZM-bl cells in assay [1] is more than 30 µg/mL. In assay [1], HJ16 (antibody) showed an IC50, neutralization of BG505.T332N pseudovirus, TZM-bl cells of 3.2 µg/mL.

For PG16 (antibody), the IC50, neutralization of BG505.T332N pseudovirus, TZM-bl cells in assay [1] came to 0.008 µg/mL. On the same count and under the same terms, to PGT121 (antibody) belongs 0.015 µg/mL; to PGT122 (antibody), 0.112 µg/mL; to PGT123 (antibody), 0.028 µg/mL. On the same count and under the same terms, to PGT125 (antibody) belongs 0.007 µg/mL; to PGT126 (antibody), 0.01 µg/mL; to PGT127 (antibody), 0.037 µg/mL. Same read-out and setting: to PGT128 (antibody) belongs 0.011 µg/mL. In assay [1], PGT130 (antibody) gave an IC50, neutralization of BG505.T332N pseudovirus, TZM-bl cells of 0.027 µg/mL.

For the substance PGT135 (antibody), the IC50, neutralization of BG505.T332N pseudovirus, TZM-bl cells in assay [1] was 2.23 µg/mL.

In assay [2], PGT136 (antibody) yielded an IC50 of neutralization of BG505.T332N Env-pseudovirus (TZM-bl) of 26.6 µg/mL. The IC50, neutralization of BG505.T332N pseudovirus, TZM-bl cells in assay [1] was found to be 25.7 µg/mL.

For PGT145 (antibody), the IC50, neutralization of BG505.T332N pseudovirus, TZM-bl cells in assay [1] was 0.083 µg/mL.

For the substance PGV04 (antibody), in assay [1], the IC50, neutralization of BG505.T332N pseudovirus, TZM-bl cells is 0.066 µg/mL. With VRC01 (antibody), the IC50, neutralization of BG505.T332N pseudovirus, TZM-bl cells in assay [1] came to 0.07 µg/mL.

In turn, VRC03 (antibody) showed an IC50, neutralization of BG505.T332N pseudovirus, TZM-bl cells in assay [1] of 0.554 µg/mL. On the same count and under the same terms, next, VRC06 (antibody): 3.32 µg/mL; VRC06b (antibody): 1.11 µg/mL.

In assay [2], X5 (antibody) came in with an IC50 of neutralization of BG505.T332N Env-pseudovirus (TZM-bl) of more than 30 µg/mL. Besides, in assay [1], the IC50, neutralization of BG505.T332N pseudovirus, TZM-bl cells is more than 30 µg/mL. As to b6 (antibody), the IC50 of neutralization of BG505.T332N Env-pseudovirus (TZM-bl) in assay [2] is more than 30 µg/mL. Further, the IC50, neutralization of BG505.T332N pseudovirus, TZM-bl cells in assay [1] is more than 30 µg/mL.

In assay [2], b12 (antibody) had an IC50 of neutralization of BG505.T332N Env-pseudovirus (TZM-bl) of 30 µg/mL. This substance displayed an IC50, neutralization of BG505.T332N pseudovirus, TZM-bl cells in assay [1] of more than 30 µg/mL.
